# Values joined by “and” are separate entries in the source; they are usually repeats but may differ in a detail not shown here. Equal entries are not always repeated.
# Legend:
# [1] = biological target: phalloidin-stabilized pyrene-labeled F-actin (rabbit) (UniProt P68135); experiment: other fluorescence titration
# [2] = biological target: bovine cardiac ventricular β-myosin subfragment 1 (α-chymotryptic S1) (bovine); experiment: stopped-flow fluorescence kinetics
Substance,"PFA fluorescence restored by MgATP, with Mava [1]","PFA fluorescence restored by MgATP, with OM [1]",decrease in pyrene fluorescence intensity at S1:actin 0.7:1 [1],stoichiometry N [1],Kd [2]
bovine cardiac ventricular β-myosin subfragment 1 (α-chymotryptic S1) (domain or fragment),84%,65%,46%,1 S1 per actin,
phalloidin-stabilized pyrene-labeled F-actin (from UniProt P68135 1-377) (natural protein),,,,,48 nM and 57 nM

# — article doi:10.1101/2020.09.16.300517
